# From patent US20160200782A1 (MOERAE MATRIX, published 2016)
# T1: SGK2(h) (human, UniProt Q9HBY8 1-367, limits assumed)
# T1 sequence (looked up): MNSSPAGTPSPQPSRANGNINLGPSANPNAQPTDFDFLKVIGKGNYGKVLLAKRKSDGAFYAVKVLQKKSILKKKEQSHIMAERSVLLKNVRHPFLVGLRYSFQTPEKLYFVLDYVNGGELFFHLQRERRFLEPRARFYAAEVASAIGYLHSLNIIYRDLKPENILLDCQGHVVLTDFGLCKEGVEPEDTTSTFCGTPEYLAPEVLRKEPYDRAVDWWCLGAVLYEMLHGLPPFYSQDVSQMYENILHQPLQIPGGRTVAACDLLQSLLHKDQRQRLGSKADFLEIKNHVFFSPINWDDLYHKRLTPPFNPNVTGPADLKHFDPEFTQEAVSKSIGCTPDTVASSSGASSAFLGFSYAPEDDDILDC
# T2: PRAK(h) (human, UniProt Q8IW41 1-473, limits assumed)
# T2 sequence (looked up): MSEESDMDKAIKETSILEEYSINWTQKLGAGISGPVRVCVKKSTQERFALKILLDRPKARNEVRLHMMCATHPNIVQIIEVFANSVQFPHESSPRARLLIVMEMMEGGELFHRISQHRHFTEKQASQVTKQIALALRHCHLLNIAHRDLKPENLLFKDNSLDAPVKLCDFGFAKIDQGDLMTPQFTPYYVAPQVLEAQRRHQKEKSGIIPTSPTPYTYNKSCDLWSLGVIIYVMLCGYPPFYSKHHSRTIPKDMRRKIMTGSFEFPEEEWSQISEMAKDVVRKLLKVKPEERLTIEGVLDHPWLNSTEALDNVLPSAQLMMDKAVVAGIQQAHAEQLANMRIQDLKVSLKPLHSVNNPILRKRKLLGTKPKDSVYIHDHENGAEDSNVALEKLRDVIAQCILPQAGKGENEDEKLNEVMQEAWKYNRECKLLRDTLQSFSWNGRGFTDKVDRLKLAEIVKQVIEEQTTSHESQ
# T3: TAO3(h) (human, UniProt Q9H2K8 1-315, limits assumed)
# T3 sequence (looked up): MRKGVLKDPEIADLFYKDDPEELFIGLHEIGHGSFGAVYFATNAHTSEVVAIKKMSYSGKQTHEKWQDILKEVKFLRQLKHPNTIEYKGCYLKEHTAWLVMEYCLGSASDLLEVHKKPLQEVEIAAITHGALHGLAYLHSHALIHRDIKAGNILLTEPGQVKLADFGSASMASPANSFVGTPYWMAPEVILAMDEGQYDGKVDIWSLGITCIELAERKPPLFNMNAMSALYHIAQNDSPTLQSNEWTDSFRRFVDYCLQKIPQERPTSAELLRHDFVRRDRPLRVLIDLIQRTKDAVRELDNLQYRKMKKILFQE
# T4: TAO2(h) (human, UniProt Q9UL54 1-314, limits assumed)
# T4 sequence (looked up): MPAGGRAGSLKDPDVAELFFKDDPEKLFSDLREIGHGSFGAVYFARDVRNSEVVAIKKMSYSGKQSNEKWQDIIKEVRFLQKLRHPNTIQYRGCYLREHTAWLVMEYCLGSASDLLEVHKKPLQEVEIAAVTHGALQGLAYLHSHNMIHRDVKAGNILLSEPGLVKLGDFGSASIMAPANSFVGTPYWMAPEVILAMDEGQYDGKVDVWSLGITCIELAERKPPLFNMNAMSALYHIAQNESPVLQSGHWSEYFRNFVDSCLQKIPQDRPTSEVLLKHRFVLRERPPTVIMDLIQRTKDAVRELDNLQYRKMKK
# Experiments:
# Experiment in all cases: cell-based or functional assay
# [1] = target: RIPK2(h) (human, UniProt O43353 1-299, limits assumed)
# RIPK2(h), sequence (O43353 1-299 limits assumed): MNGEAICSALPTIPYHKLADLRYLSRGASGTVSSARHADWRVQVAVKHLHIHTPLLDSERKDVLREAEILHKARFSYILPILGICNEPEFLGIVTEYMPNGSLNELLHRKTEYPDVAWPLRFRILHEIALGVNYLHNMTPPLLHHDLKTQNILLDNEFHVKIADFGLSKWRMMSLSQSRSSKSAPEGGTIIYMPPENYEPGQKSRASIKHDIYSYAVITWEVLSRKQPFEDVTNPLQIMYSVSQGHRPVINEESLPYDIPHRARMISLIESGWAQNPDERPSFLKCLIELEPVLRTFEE
# [2] = target: T1, SGK2(h)
# [3] = target: T2, PRAK(h)
# [4] = target: CDK7/cyclinH/MAT1(h) (human, UniProt P50613 1-346; P51946 1-323; P51948 1-309)
# CDK7/cyclinH/MAT1(h), sequence (P50613 whole entry, chain 1 of 3): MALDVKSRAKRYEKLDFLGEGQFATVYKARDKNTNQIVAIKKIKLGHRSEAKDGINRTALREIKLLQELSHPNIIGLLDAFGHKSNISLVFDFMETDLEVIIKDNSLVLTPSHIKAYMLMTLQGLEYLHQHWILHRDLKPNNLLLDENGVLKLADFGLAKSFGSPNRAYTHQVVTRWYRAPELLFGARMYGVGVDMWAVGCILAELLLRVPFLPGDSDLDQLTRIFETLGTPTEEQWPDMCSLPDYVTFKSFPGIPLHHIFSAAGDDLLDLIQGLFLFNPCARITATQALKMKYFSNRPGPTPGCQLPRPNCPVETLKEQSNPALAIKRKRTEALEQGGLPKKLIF
# CDK7/cyclinH/MAT1(h), sequence (P51946 whole entry, chain 2 of 3): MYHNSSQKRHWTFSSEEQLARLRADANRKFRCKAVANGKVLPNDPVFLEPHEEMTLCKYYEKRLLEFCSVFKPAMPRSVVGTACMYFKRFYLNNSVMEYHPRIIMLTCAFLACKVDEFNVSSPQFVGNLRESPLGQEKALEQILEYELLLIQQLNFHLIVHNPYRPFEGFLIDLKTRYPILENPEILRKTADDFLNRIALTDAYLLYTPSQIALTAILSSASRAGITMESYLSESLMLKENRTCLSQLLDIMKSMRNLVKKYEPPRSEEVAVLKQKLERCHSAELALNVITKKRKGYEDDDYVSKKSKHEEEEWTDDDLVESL
# CDK7/cyclinH/MAT1(h), sequence (P51948 whole entry, chain 3 of 3): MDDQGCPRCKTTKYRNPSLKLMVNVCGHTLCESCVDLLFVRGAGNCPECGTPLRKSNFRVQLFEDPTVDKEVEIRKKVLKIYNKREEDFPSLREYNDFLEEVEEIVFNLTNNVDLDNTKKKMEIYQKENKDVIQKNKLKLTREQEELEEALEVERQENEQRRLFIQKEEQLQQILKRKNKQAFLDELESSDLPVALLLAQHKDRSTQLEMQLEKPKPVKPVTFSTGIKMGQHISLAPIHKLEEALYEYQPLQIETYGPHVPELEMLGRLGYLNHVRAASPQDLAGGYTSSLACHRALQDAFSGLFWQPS
# [5] = target: Pyk2(h) (human, UniProt Q14289 1-1009, limits assumed)
# Pyk2(h), sequence (Q14289 whole entry): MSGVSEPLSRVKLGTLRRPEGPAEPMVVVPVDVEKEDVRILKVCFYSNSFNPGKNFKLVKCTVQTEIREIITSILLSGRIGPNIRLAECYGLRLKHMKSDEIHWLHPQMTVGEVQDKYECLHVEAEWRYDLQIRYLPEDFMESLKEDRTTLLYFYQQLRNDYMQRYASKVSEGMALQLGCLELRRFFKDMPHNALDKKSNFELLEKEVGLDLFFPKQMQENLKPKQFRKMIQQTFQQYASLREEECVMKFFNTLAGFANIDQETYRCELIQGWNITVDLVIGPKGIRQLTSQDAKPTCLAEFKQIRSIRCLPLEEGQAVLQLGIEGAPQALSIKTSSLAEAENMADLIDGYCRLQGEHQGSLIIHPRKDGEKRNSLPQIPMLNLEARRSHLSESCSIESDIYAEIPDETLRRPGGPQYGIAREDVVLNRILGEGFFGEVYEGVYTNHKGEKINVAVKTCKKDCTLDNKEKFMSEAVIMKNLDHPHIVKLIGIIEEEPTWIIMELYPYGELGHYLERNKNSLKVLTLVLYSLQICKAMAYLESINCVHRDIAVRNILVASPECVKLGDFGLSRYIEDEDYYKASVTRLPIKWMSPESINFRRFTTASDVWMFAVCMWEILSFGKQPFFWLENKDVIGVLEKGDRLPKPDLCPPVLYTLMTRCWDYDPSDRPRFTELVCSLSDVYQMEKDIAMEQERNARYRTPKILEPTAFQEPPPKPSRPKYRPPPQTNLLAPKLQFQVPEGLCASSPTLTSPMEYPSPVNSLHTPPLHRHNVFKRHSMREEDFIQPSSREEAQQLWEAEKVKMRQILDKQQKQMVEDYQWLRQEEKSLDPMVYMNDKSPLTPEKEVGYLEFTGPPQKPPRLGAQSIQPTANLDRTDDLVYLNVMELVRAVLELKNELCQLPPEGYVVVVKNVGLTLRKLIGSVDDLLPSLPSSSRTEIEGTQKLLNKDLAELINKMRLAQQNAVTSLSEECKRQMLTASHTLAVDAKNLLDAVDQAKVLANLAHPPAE
# [6] = target: Fyn(h) (human, UniProt P06241 1-537, limits assumed)
# [7] = target: PDGFRβ(h) (human, UniProt P09619 557-1106, limits assumed)
# [8] = target: PKBγ(h) (human, UniProt Q9Y243 1-479, limits assumed)
# PKBγ(h), sequence (Q9Y243 whole entry): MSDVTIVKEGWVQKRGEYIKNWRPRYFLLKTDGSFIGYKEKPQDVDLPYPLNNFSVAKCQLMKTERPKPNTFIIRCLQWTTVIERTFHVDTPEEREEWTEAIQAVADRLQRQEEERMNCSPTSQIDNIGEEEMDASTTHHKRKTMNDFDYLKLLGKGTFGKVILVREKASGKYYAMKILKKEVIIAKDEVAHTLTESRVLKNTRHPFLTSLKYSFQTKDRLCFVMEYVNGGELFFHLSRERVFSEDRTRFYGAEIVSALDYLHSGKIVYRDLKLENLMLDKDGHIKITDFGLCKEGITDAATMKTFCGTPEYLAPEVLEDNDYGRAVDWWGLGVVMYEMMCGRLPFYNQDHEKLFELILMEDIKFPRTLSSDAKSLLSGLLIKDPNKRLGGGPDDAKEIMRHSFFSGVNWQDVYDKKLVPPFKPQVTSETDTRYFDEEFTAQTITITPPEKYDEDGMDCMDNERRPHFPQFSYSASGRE
# [9] = target: GSK3α(h) (human, UniProt P49840 1-483)
# GSK3α(h), sequence (P49840 whole entry): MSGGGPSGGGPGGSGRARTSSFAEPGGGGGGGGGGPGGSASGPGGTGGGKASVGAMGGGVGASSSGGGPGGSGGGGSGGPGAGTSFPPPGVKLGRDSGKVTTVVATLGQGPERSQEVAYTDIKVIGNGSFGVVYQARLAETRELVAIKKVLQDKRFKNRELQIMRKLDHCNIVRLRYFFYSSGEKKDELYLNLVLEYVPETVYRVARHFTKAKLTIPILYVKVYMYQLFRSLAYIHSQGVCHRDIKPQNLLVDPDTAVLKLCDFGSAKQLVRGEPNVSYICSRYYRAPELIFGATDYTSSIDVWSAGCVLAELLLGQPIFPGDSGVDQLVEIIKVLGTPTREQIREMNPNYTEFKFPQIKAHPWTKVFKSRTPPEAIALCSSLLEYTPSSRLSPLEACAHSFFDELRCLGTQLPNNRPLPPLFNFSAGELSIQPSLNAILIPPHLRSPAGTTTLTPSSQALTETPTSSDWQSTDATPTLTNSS
# [10] = target: SAPK2b(h) (human, UniProt Q15759 1-364)
# SAPK2b(h), sequence (Q15759 whole entry): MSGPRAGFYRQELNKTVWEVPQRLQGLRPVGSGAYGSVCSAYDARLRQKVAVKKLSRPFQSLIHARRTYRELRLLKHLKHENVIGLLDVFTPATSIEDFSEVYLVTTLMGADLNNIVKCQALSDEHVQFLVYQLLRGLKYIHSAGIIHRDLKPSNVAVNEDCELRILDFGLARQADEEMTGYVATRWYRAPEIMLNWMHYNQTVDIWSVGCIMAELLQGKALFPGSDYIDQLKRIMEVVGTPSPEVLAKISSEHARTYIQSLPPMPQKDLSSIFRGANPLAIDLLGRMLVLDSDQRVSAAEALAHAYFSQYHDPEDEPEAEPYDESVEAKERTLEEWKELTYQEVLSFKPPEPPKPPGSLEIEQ
# [11] = target: GRK6(h) (human, UniProt P43250 1-576, limits assumed)
# GRK6(h), sequence (P43250 whole entry): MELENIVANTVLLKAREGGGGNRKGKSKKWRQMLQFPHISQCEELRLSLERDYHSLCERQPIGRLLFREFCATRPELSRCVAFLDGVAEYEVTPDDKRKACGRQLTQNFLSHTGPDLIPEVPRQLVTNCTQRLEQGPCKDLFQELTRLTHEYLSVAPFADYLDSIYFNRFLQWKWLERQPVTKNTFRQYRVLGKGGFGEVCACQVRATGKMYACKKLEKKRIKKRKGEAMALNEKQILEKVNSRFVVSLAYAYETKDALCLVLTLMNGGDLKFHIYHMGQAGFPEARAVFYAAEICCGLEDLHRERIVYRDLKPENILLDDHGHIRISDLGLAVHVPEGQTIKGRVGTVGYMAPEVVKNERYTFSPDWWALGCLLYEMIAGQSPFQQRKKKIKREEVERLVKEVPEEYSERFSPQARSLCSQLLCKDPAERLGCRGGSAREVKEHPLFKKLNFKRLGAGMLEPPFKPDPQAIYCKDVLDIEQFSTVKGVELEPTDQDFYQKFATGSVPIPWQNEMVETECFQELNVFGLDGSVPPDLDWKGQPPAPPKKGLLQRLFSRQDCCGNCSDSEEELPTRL
# [12] = target: T3, TAO3(h)
# [13] = target: T4, TAO2(h)
# [14] = target: ALK(h) (human, UniProt Q9UM73 1058-1620, limits assumed)
# ALK(h), sequence (Q9UM73 1058-1620 limits assumed): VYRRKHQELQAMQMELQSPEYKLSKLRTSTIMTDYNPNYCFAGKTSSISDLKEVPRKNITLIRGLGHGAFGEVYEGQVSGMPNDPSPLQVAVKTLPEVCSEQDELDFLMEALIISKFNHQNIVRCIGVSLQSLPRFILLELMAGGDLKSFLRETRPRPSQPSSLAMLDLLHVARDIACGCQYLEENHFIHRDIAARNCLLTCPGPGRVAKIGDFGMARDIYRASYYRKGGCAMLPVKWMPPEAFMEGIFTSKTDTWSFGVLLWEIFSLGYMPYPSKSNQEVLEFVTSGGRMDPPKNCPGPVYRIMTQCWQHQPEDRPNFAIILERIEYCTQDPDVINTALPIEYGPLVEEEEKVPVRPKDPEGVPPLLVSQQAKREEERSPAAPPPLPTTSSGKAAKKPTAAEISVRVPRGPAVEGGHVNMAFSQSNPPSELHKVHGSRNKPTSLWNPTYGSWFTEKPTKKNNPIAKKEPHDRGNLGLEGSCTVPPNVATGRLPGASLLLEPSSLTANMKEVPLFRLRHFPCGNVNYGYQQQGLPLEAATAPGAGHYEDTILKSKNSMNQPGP
# [15] = target: BRK(h) (human, UniProt Q13882 1-451, limits assumed)
# [16] = target: Ab1(Q252H)(h) (human, UniProt P00519 27-1130, limits assumed)
# [17] = target: cSRC(h) (human, UniProt P12931 1-536, limits assumed)
% activity [1] [%],% activity [2] [%],% activity [3] [%],% activity [4] [%],% activity [5] [%],% activity [6] [%],% activity [7] [%],% activity [8] [%],% activity [9] [%],% activity [10] [%],% activity [11] [%],% activity [12] [%],% activity [13] [%],% activity [14] [%],% activity [15] [%],% activity [16] [%],% activity [17] [%],Binder
97,56,128,65,47,74,81,20,157,81,147,77,70,19,35,82,26,FAKLAARLYRKALARQLGVAA [MMI-0300]
98,98,118,47,34,54,53,41,164,82,141,67,74,16,18,98,14,KAFAKLAARLYRKALARQLGVAA [MMI-0400]
